Measured values as given in patent publication US20090252717.

What was measured:
[1] = target: immunoprecipitated endogenous mouse brain kinesin-1 (UniProt Q61768)
[2] = target: KHC-584 (first 584 amino acids of rat KHC, expressed in E. coli) (UniProt Q2PQA9)
Sequence of KHC-584 (first 584 amino acids of rat KHC, expressed in E. coli) (Q2PQA9 1-584): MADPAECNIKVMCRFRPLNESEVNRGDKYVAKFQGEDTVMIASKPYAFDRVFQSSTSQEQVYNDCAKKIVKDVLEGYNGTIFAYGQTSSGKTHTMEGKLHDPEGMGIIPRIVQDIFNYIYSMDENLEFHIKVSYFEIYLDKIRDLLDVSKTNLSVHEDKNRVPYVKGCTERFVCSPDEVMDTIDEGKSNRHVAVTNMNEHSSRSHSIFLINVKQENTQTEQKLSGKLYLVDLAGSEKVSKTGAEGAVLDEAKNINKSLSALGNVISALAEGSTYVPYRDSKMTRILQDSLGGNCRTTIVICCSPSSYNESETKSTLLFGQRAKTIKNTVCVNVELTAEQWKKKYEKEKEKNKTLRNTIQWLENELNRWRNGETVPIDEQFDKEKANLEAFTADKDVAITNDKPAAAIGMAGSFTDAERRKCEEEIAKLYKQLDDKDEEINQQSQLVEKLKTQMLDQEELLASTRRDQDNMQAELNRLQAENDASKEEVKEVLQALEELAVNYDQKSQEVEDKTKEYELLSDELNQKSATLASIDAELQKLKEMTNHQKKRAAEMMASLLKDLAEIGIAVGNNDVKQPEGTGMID

Sequence of recombinant 6-His-tagged JNK3 kinase (JNK3/SAPK1b, Upstate Biotechnology) (P53779 whole entry): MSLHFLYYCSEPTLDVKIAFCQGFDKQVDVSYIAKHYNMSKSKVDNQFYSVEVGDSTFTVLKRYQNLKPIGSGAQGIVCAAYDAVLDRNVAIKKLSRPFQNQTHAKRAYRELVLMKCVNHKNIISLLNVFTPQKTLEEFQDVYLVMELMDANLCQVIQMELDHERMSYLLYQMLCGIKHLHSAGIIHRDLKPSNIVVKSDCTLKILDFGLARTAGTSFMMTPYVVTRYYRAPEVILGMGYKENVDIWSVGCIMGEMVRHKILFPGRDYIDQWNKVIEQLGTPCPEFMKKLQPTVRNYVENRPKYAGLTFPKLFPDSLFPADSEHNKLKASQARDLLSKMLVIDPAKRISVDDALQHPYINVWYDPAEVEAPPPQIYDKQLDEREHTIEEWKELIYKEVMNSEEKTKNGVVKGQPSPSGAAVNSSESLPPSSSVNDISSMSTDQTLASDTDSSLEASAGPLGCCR
Sequence of immunoprecipitated endogenous mouse brain kinesin-1 (Q61768 whole entry, looked up): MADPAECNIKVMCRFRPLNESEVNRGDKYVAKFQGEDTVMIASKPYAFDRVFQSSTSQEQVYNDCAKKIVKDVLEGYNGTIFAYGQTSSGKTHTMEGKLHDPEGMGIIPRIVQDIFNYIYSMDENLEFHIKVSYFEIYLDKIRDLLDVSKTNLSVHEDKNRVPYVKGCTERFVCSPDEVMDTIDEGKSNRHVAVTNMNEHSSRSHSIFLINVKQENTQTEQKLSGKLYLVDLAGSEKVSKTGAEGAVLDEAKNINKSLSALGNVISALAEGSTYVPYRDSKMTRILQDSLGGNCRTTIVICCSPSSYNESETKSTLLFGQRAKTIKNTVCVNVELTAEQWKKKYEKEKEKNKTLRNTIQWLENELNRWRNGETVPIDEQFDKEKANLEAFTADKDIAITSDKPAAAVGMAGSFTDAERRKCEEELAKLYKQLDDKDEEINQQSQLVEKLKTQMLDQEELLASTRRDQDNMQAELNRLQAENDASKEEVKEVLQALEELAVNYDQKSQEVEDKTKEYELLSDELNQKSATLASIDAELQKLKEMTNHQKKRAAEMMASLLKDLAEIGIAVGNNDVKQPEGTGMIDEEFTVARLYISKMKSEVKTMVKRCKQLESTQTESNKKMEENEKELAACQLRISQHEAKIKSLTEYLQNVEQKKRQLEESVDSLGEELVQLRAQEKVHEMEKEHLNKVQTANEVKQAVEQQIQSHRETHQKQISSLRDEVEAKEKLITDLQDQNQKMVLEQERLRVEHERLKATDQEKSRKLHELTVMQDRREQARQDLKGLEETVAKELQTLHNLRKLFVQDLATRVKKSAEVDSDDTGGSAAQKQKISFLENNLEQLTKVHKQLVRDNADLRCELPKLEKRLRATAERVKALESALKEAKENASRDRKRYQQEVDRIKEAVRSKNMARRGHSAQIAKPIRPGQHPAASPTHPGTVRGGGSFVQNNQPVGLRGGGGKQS

Substance: recombinant 6-His-tagged JNK3 kinase (JNK3/SAPK1b, Upstate Biotechnology)
- in vitro kinase assay (32P incorporation) [1]: both recombinant KHC and immunoprecipitated endogenous mouse brain kinesin-1 KHC could be phosphorylated by recombinant JNK
- in vitro phosphorylation, autoradiogram [1]: Autoradiograms showed 32P incorporation in KHCs, but not KLCs
- in vitro kinase assay (32P incorporation) [2]: both recombinant KHC and immunoprecipitated endogenous mouse brain kinesin-1 KHC could be phosphorylated by recombinant JNK
- in vitro phosphorylation, mass spectrometry of tryptic peptides [2]: A single tryptic peptide was identified with evidence of phosphorylation
